Non-standard residues stand in square brackets, D forms with d. alkynyl palmitic acid = FA, attached to pAzF by click chemistry; Phe(4-N3) = [N-]=[N+]=Nc1ccc(C[C@H](N)C(=O)O)cc1
What was measured:
human serum albumin = target: T1, human serum albumin (human, UniProt P02768 25-609); test: SPR; Biacore T200; HSA or MSA immobilised by amine coupling on CM5 chip (∼1,300 to 12,800 RU); ELP-GFP derivatives injected, twofold dilution series ∼0.28 to 60 µM; PBS running buffer; 60-s association, 600-s dissociation; steady-state affinity binding model; mean of four to eight independent measurements; settings: both partners purified
T1 construct: serum albumin, human; also called HSA; source: bought: Sigma, catalog #A3782

mouse serum albumin = target: T2, mouse serum albumin (mouse, UniProt P07724 25-608); test: as above; settings: both partners purified
T2 construct: serum albumin, mouse, from mouse serum; also called MSA; albumin from mouse serum; source: bought: Sigma, catalog #A3139 (albumin from mouse serum)
T2 sequence (P07724 25-608): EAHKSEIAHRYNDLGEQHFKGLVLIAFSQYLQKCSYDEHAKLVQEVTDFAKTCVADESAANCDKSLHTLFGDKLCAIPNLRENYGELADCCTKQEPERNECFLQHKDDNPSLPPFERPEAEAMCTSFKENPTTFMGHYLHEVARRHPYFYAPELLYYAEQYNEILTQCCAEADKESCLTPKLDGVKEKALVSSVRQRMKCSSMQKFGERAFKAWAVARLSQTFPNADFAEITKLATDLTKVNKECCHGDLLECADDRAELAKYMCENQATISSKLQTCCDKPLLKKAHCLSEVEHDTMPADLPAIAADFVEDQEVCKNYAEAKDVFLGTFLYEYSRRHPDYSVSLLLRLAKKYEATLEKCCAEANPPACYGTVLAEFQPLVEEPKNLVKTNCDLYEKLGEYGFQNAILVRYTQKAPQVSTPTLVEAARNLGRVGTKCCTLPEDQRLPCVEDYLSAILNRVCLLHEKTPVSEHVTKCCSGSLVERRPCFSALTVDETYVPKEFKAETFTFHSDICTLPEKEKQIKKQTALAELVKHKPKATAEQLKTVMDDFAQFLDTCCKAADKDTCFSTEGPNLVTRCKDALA

Kd (human serum albumin): 1.64 µM
Kd (mouse serum albumin): 2.22 µM
B1: ELP(10FA)-GFP, ISAz treated (other)
chain: VPGAGVPG[Phe(4-N3)](alkynyl palmitic acid)GVPGGGVPGAGVPG[Phe(4-N3)](alkynyl palmitic acid)GVPGGGVPGAGVPG[Phe(4-N3)](alkynyl palmitic acid)GVPGGGVPGAGVPG[Phe(4-N3)](alkynyl palmitic acid)GVPGGGVPGAGVPG[Phe(4-N3)](alkynyl palmitic acid)GVPGGGVPGAGVPG[Phe(4-N3)](alkynyl palmitic acid)GVPGGGVPGAGVPG[Phe(4-N3)](alkynyl palmitic acid)GVPGGGVPGAGVPG[Phe(4-N3)](alkynyl palmitic acid)GVPGGGVPGAGVPG[Phe(4-N3)](alkynyl palmitic acid)GVPGGGVPGAGVPG[Phe(4-N3)](alkynyl palmitic acid)GVPGGG
modifications: not fully specified (C-terminus); also: pAzF coupled to alkynyl palmitic acid by click (triazole)

— paper PMC8794819, “Tuning protein half-life in mouse using sequence-defined biopolymers functionalized with lipids” (Proceedings of the National Academy of Sciences of the …, 2022)
